We go through two molecules from PMC7774954 (2020).

Where no end group is shown, it is not given here. The star is where a group is joined. Biotin = O=C1N[C@H]2[C@H](CS[C@H]2CCCCC(=O)*)N1; TTDS = NCCCOCCOCCOCCCNC(=O)CCC(=O)*

In assay [1] the target is T1, MAST2-1 (human).
T1 chain: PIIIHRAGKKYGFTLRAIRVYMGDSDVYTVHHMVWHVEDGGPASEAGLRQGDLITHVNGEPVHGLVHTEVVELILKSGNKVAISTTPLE
The experiment in a line: FP; competitive FP with fRSK1 tracer.

The target of assay [2] is HTRA1-1 (human). In words: FP; competitive FP with fRSK1 tracer.
HTRA1-1 (human), sequence (chain, as listed by the source): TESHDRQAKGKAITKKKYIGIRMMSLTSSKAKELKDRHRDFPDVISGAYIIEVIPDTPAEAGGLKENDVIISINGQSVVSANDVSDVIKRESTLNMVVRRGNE
In assay [3] the target is T1, MAST2-1. In words: FP.
Assay [4] addresses HTRA1-1 (human). In words: FP.

Usually Kd stands for the free concentration of one partner at which half of the binding sites on the other are occupied at equilibrium, for simple one-to-one binding. For {Biotin-TTDS}-DEDQHTQITKV [PTEN_11], the values for the Kd in assay [1] and in assay [2] were 3.14 µM and 45.1 µM, respectively.
For the molecule Fluorescein-KLPSTTL [fRSK1], the figures for the Kd in assay [3] and in assay [4] were 6.87 µM and 64.8 µM, respectively.
